According to patent US20250250335A1 (SHENGHE CHINA BIOPHARMACEUTICAL, published 2025):
Read-outs that look alike come from different tables or passages of the source.

T1: CEACAM5 on the surface of the tumor cells (HPAFII cells) (UniProt P06731 35-685)
T1 construct: whole, on cells
T1 sequence (looked up): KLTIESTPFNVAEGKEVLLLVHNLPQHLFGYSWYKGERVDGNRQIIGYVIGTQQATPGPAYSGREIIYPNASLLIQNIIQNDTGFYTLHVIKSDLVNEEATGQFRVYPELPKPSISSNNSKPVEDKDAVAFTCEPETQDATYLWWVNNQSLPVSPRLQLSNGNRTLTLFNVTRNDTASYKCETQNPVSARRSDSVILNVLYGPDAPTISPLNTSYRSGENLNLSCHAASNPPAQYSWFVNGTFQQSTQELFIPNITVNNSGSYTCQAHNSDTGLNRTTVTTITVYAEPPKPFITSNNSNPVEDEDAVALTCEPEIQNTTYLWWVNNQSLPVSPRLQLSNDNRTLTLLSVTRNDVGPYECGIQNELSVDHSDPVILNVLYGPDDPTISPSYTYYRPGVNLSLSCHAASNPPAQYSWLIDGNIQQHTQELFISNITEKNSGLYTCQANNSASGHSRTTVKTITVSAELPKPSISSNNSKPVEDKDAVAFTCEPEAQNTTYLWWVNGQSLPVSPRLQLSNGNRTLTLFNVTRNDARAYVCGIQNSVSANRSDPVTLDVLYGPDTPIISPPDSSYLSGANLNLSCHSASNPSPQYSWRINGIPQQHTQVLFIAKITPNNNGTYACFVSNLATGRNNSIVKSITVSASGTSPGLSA

T2: CEACAM6 on the surface of the tumor cells (HPAFII cells) (UniProt P40199 35-320)
T2 construct: whole, on cells
T2 sequence (looked up): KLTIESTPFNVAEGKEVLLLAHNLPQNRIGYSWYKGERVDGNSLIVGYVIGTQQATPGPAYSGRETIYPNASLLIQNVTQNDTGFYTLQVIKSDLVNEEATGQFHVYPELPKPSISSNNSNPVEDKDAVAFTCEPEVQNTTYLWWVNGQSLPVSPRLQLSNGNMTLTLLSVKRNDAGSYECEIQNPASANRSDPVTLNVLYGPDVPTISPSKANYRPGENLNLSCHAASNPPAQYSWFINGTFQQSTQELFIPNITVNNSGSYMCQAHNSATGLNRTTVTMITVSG

T3: human CEACAM5-his (ACRO CE5-H5226) (human, UniProt P06731 35-685)
T3 construct: Bought protein; not shown: His tag
T3 sequence (looked up): T1 sequence (looked up)

T4: human CEACAM6-his (ACRO CE6-H5223) (human, UniProt P40199 35-320)
T4 construct: Bought protein; not shown: His tag
T4 sequence (looked up): T2 sequence (looked up)

T5: mouse CEACAM5 (mouse, UniProt Q3UKK2 35-947, limits assumed)
T5 sequence (looked up): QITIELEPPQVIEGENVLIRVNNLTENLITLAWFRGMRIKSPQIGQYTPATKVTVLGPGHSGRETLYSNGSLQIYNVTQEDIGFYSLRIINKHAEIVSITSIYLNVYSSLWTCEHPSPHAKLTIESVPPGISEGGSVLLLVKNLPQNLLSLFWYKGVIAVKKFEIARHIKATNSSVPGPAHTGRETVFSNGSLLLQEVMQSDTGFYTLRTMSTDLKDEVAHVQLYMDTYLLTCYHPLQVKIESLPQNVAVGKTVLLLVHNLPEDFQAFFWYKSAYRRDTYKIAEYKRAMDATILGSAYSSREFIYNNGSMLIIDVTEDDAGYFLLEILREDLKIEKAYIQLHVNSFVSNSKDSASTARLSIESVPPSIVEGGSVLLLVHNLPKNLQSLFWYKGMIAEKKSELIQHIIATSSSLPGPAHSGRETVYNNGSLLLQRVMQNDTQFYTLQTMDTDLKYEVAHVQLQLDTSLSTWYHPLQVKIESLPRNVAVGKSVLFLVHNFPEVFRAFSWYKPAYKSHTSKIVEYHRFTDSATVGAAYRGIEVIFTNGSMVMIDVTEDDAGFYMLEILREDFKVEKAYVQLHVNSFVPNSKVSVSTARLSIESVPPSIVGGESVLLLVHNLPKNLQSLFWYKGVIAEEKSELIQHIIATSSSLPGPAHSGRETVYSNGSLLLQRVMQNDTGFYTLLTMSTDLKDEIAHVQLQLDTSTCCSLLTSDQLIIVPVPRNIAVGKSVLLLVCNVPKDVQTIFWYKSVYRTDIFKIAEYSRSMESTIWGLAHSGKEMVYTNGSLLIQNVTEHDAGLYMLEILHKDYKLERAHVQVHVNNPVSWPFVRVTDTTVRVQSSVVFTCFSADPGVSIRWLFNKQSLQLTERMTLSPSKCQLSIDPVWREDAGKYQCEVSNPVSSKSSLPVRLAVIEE

B1: Antibody 8 (antibody, V domains shown)
VH: EVQLRQSGPELVRPGASMKISCKASGYSFTAYTMTWVKQSHGKILEWIGLIAPYHGGTVYNQKFKGKATLTVDKSSSTAYMELLSLTSEDSAIYYCAGGASSGFVTWFAYWGQGTLVTVSA
VL: DIQMTQSPASLSASVGETVTITCGASENIYGALNWYQRKQGKSPQVLIYGATNLADGTSSRFSGSGSGRQYSLKINSLHPDDVATYYCQNVLSTPYTFGGGTKLEIK
notes: Mouse-derived hybridoma antibody; also called mouse-derived antibody 8
B2: Antibody 15 (antibody, V domains shown)
VH: QVQLQQPGAELVKPGASVTLSCKASGYTFTSYWINWVKQRPGQGLEWIGNIYPYTSSSNYNEKFKGKATLTVDTSSNTAYMQLSGLTSDDSAVYFCARKGNIYYSYESYPLDFWGQGTSVTVSS
VL: DIQMTQSSSSFSVSLGDRVTITCKASEDIYKQIGWYQQKPGNAPRLLIAGATSLETGVPSRFSGSGSGKDYMLNITSLQTEDVGSYYCQQYWSPPFTFGSGTKLEIK
notes: Mouse-derived hybridoma antibody; also called mouse-derived antibody 15
B3: Antibody B (antibody, human IgG1, kappa, V domains shown)
VH: EVQLVESGGGLVQPGGSLRLSCAASEFTLIDYYMSWVRQAPGKGLEWVGYIRNKVNGHTTDYIASVKGRFTISRDDSKNSLYLQMNSLKTEDTAVYYCARDPGINWYFDVWGQGTLVTVSS
VL: EIVLTQSPATLSLSPGERATLSCRASSRVTYMHWYQQKPGQSPRPLISATSNLASGIPARFSGSGSGTDYTLTISSLEPEDFAVYYCQQWSYNPPTFGGGTKLELKR
notes: Humanized form of mouse-derived antibody 2 on a human IgG framework; also called humanized antibody B
B4: Antibody 13 (antibody, V domains shown)
VH: EVKLVESGGGLVQPGGSLSLSCTASGFTLTDYYMSWVRQPPGRALEWLALIRNKVNGYTIEYSASVKGRFTISRDNSQSILYLQMNALRAEDSATYYCARDIGIRWYFDVWGAGTTVTVSS
VL: QIVLSQSPAILSASPGEKVTMTCRASSSVSYMHWYQQKPGSSPKPWIYATSNLASGVPARFSGSGSGTSYSLTISRMEAEDAATYYCQQWSGNPPTFGGGTKLEIK
notes: Mouse-derived hybridoma antibody; also called mouse-derived antibody 13
B5: Antibody 7 (antibody, V domains shown)
VH: QIQLVQSGPELKKPGETVKISCKASGYTFTDYGMNWVKQAPGKGLKWMGWINTYTGEPTYPDDFKGRFAFSLETSATTAYLQINNLKNEDTATYFCSRGDLLVRLDNWGQGTTLTVSS
VL: DIQMTQSPSSLSASLGGKVTITCKASQDINKYISWYQHKPGKGPRLLIHYTSTLQSGIPSRFSGSGSGRDYSFSISNLEPEDIATYYCLQYDYLRTFGGGTKLEIK
notes: Mouse-derived hybridoma antibody; also called mouse-derived antibody 7

Experiments:
[1] = molecular target: T6, Human-CEACAM6 (AB)-His (human, UniProt P40199 145-314); experiment: ELISA on coated human CEACAM6 (AB), OD450
T6 construct: Made in house, purified on a nickel column
T6 sequence (P40199 other isoform, or with tags, fused parts or gaps limits assumed): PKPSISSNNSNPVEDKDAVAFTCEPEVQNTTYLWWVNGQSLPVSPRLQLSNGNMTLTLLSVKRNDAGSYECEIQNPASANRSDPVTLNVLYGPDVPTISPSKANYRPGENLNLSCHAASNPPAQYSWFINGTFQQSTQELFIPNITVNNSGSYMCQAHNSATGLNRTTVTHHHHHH
Experimental: (§1) The binding activity of the antibodies to human CEACAM5, human CEACAM6, and human CEACAM6 (AB) proteins was detected by ELISA. The plate coated with proteins was incubated at 4° C. overnight, and the 96-well ELISA plate blocked with 2% PBS-BSA was added with the antibody to be detected and incubated at 37° C. for 1 h. After washing 3 times with PBS containing 0.05% Tween, the absorbance value of each well was read at wavelength 450 nm with the gradient-diluted mouse-derived candidate antibody as the primary antibody and anti-mouse-IgG-FC-HRP as the secondary antibody, and the absorbance value of each well was read at wavelength 450 nm after the TMB color development.

[2] = molecular target: T1, CEACAM5 on the surface of the tumor …; experiment: flow cytometry on HPAFII cells (Mean-FITC); the cells carry CEACAM5 and CEACAM6, signal not divided between the two
Experimental: (§2) The antibody to be tested was taken as the initial concentration of 200 nM and diluted 5-fold with 6 gradients. The HPAFII cells (From USTC […] FOR ADVANCED STUDIES) in the incubator were taken out, and the cell suspension was transferred to a 15 mL centrifuge tube, centrifuged, and counted by resuspension in PBS. A blank control group (Blank), a negative control group (NC), an experimental group, a positive control group and the irrelevant antibody group were kept. […] The cell suspension was spread in a 96-well plate according to about 3×10⁵ cells/well. Centrifugation (1000 rpm, 5 min) was performed, followed by washing with PBS, re-centrifugation, and repeated twice to remove media residues. The supernatant was discarded, 100 μL of primary antibody solution and irrelevant antibody solution were added to the experimental group and irrelevant antibody group, respectively, and the cells were resuspended and incubated at room temperature for 1 h. The blank group, and the negative control group were incubated with an equal amount of PBS.
(§3) After 1 h, PBS was added to wash twice. After the supernatant was discarded, 100 μL of fluorescent secondary antibody dilution (Mouse-derived secondary antibody from Abcam ab6785) was added to each sample group, except for the blank group which was added with 100 μL of PBS. After incubation at room temperature and protected from light for 0.5 h, centrifugation was performed and PBS added to wash the samples twice. After the supernatant was discarded, 120 μL of PBS was added to resuspend and sequentially flow cytometry was performed to detect the mean fluorescence intensity. The concentration of the antibody was logarithmically taken as the horizontal coordinate, and the Sigmoidaldose-response (VariableSlope) method (GraphPadPrism Software, GraphPadSoftware, San Diego, California) was chosen to perform a nonlinear regression to obtain the binding activity curves of the antibody on HPAFII cells.

[3] = molecular target: T2, CEACAM6 on the surface of the tumor …; experiment: as above
Experimental: as §2, §3

[4] = molecular target: T3, human CEACAM5-his (ACRO CE5-H5226); experiment: ELISA on coated human CEACAM5, OD450
Experimental: as §1

[5] = molecular target: T6, Human-CEACAM6 (AB)-His; experiment: SPR (Biacore), antibody captured on CM5 chip, antigen as analyte, 1:1 model
Experimental: (§4) The CM5 sensor chip was activated at a flow rate of 10 μL/min for 420 seconds. The channel was then injected with 30 μg/mL of anti-rat Fc IgG in 10 mM NaAc (pH 4.5) at a flow rate of 10 μL/min. The chip was inactivated with 1 M ethanolamine-hydrochloric acid (GE) for 420 seconds at a flow rate of 10 μL/min.
(§5) Candidate antibodies in running buffer 1×HBS-EP+ (10 mM HEPES, 150 mM NaCl, 3 mM EDTA, 0.05% Tween 20, pH 7.4) were captured onto Fc2 with anti-rat Fc IgG at a flow rate of 10 μL/min. The 10 nM human CEACAM5-his protein or CEACAM-6-his or CEACAM6 (AB)-his protein and running buffer were sequentially injected into Fc1-Fc2 at a flow rate of […], bound for 180 seconds, and then dissociated for 3600 seconds. 10 mM glycine (pH 1.5) was injected as regeneration buffer after each dissociation.
(§6) Result plots for the reference channel Fc1 and the buffer channel were subtracted from the test result plots. The experimental data fit the 1:1 binding model. The molecular weight of 110 KDa was used to calculate the molar concentration of CEACAM5 protein, 55 KDa for human CEACAM6-his, and 55 KDa for human CEACAM6 (AB)-his.

[6] = molecular target: T4, human CEACAM6-his (ACRO CE6-H5223); experiment: as above
Experimental: as §4, §5, §6

[7] = molecular target: T3, human CEACAM5-his (ACRO CE5-H5226); experiment: as above
Experimental: as §4, §5, §6

[8] = molecular target: T3, human CEACAM5-his (ACRO CE5-H5226); experiment: ELISA on coated human CEACAM5, OD450; remark: listed apart in the source
Experimental: as §1

[9] = molecular target: T5, mouse CEACAM5; experiment: ELISA on coated protein, OD450
Experimental: The affinity of the antibodies to monkey CEACAM5, monkey CEACAM6, and mouse CEACAM5 proteins was determined by ELISA. The plates encapsulated with […] proteins were incubated at 4° C. overnight, and the antibodies to be detected were added to 96-well ELISA plates after being blocked with 2% PBS-BSA and incubated at 37° C. for 1 h. After washing 3 times with PBS containing 0.05% Tween, the absorbance value of each well was read at wavelength 450 nm with the antibody to be detected as the primary antibody and Goat anti-mouse IgG-FC-HRP as the secondary antibody, and the absorbance value of each well was read at wavelength 450 nm after the TMB color development. The specific binding to CEACAM5 and CEACAM6 of mouse and monkey was detected by Elisa method.

Row | Binder | EC50 (read off the curve) [1] [µg/mL] | EC50 (read off the curve) [2] [nM] | EC50 (read off the curve) [3] [nM] | EC50 (read off the curve) [4] [µg/mL] | Kd [5] [nM] | Kd [6] [nM] | Kd [7] [nM] | EC50 (read off the curve) [8] [µg/mL] | OD [9] [OD]
1 | B1 | ~0.02 | ~2 | ~2 | ~0.01 | – | – | – | – | –
2 | B2 | – | – | – | – | < 0.001 | 3.83 | 7.64 | – | –
3 | B3 | – | – | – | – | 117 | 19.7 | < 0.001 | – | –
4 | B4 | ~0.02 | – | – | – | 4.51 | 37.4 | 1.36 | ~0.03 | 0.15
5 | B5 | ~0.01 | ~2 | ~2 | – | – | – | – | – | –
